# Measurements: article PMC7948415
# Assays:
# properdin (human) = properdin (human) (UniProt P27918); assay: SPR; Biacore T100; properdin amine-coupled to a CM5 chip (5000 RU); C3b (20 μg/ml), factor B (20 μg/ml) and factor D (2 μg/ml) in HBS/MgCl2 injected at 30 μl/min for 120 s without or with SG7.AF, albicin or anophensin (Fig. 9C: 56.8 nM C3b, 107.5 nM factor B, 41.7 nM factor D, inhibitors 1 μM); dissociation at 1 μM inhibitor fitted to a double exponential decay
# [1] = target: variant of anophensin with the N-terminus extended by the retention of three amino acids from the signal peptide (Anopheles stephensi) (UniProt A5HUP6); assay: crystal structure; lengthened anophensin, space group P2_(1)2_(1)2, three monomers in the asymmetric unit, SAD with a selenomethionine derivative
# Sequence of properdin (human) (P27918 28-469): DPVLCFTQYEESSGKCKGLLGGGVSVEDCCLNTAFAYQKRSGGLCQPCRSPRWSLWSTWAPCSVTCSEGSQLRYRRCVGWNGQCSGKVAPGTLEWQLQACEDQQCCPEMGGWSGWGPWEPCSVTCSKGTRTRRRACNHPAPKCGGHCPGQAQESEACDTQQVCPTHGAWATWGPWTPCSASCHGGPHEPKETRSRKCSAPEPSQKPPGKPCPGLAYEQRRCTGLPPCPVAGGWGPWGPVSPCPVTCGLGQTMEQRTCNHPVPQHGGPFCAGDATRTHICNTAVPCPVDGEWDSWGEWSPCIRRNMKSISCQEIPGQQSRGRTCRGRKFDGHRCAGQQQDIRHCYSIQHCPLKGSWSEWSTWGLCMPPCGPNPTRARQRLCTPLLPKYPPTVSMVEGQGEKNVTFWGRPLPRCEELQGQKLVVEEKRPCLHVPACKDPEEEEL
Substance,"koff, fast phase of a double exponential decay (properdin (human)) [s⁻¹]","koff, slow phase of a double exponential decay (properdin (human)) [s⁻¹]",stoichiometry N [1]
albicin-bound C3bBb complex (from UniProt P01024 749-1663; P01024 749-1663; P00751 260-764; A0A1Y9G8D0 27-142),0.02,0.003,
SG7.AF-bound C3bBb complex (from UniProt P01024 749-1663; P01024 749-1663; P00751 260-764; C0HMB5 1-119),0.02,0.003,
variant of anophensin with the N-terminus extended by the retention of three amino acids from the signal peptide (from UniProt A5HUP6 28-142) (natural protein),,,2
